Assays:
[1] = target: T1, human CS1 on CS1pos OPM2 multiple myeloma cells (human (endogenous in OPM2)) (UniProt Q9NQ25)
T1 sequence: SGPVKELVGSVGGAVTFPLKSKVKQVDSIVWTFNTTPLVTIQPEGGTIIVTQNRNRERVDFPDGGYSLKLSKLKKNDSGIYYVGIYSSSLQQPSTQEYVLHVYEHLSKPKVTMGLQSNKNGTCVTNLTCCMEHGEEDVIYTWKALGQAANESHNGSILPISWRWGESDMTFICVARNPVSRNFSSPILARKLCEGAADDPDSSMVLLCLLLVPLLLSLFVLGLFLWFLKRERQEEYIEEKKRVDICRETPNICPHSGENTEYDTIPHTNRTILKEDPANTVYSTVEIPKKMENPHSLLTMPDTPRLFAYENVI

[2] = target: T2, recombinant human CS1 protein (CS1-(his)C) (human) (UniProt Q9NQ25); test: SPR; Biacore T200; recombinant CS1 amine-coupled on a CM5 chip; VHH 100 nM to 3.125 nM in HBS pH 7.4, 25°C; association 180 s, dissociation 300 s; fit '1:1 binding with drift and RI2'; n=1
T2 sequence: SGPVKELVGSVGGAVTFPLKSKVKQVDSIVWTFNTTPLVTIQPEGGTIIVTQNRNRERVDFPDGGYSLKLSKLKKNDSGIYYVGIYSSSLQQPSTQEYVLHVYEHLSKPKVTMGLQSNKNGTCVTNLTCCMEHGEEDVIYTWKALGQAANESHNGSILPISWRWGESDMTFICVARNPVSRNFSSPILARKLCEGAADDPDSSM

[3] = target: T1, human CS1 on CS1pos OPM2 multiple myeloma cells (human (endogenous in OPM2)); test: flow cytometry on cells; purified VHH at 200 nM, 1 h at 4°C, on CS1pos OPM2 cells; detected by mouse anti-His IgG1 mAb and APC anti-mouse IgG1 mAb; ΔMFI against the non-targeting control VHH R3B23 at 200 nM; n=1

tumor uptake of the 99mTc-labelled VHH in subcutaneous CS1pos OPM2 tumors in mice, ex vivo at 90 min p.i. (n=3) [1]: 0.48 % IA/g | Kd [2]: 49.7 nM | koff [2]: 0.0318 s⁻¹ | kon [2]: 641000 M⁻¹ s⁻¹ | ΔMFI [VHH] = 200 nM [3]: 6.09
B1: VHH-2 (VHH)
VHH: DVQLVESGGGLVQPGDSLRLSCTASGRTFENNFMGWFRQPPGKEREFVAAVGWNTGRGYYTDSVKGRFTISRDSAKNTVYLQMNSLKPEDTAVYSCNAPLQSLDRRLPGPYWGQGTQVTVSS
